Measurements taken from patent US20220275083A1 (EUTILEX, published 2022).

B1: bispecific epitope binding protein S04 (bispecific antibody)
chain: DIVMTQSPAFLSVTPGEKVTITCRASQTISDYLHWYQQKPDQAPKLLIKYASQSISGIPSRFSGSGSGTDFTFTISSLEAEDAATYYCQDGHSWPPTFGQGTKLEIKGSTSGSGKPGSGEGSTKGQVQLVQSGAEVKKPGASVKLSCKASGYTFSSYWMHWVRQAPGQGLEWIGEINPGNGHTNYNEKFKSRVTMTRDTSTSTAYMELSSLRSEDTAVYYCARSFKTARAFAYWGQGTLVTVSSASGGGGSGGGGSDKTHTCPPCPAPEAAGGPSVFLFPPKPKDTLMISRTPEVTCVVVDVSHEDPEVKFNWYVDGVEVHNAKTKPREEQYNSTYRVVSVLTVLHQDWLNGKEYKCAVSNKALPAPIEKTISKAKGQPREPQVYTLPPSREEMTKNQVSLTCLVKGFYPSDIAVEWESNGQPENNYKTTPPVLDSDGSFFLYSKLTVDKSRWQQGNVFSCSVMHEALHNHYTQKSLSLSPGGGGGSGGGGSFLESPDRPWNAPTFSPALLLVAEGDNATFTCSFSNASESFHVVWHRESPSGQTDTLAAFPEDRSQPGQDHRFRVTRLPNGRDFHMSVVRAQRNDSGTYVCGVISLAPKIQIKESLRAELRVTERRAEVPTAHPSPSPRPAGQFQTLVVGGGGGSGGGGSGGGGSFLESPDRPWNAPTFSPALLLVAEGDNATFTCSFSNASESFHVVWHRESPSGQTDTLAAFPEDRSQPGQDHRFRVTRLPNGRDFHMSVVRAQRNDSGTYVCGVISLAPKIQIKESLRAELRVTERRAEVPTAHPSPSPRPAGQFQTLVVG
notes: Anti-4-1BB 94kvt scFv x euPD-1 with hinge and engineered IgG1 Fc
B2: bispecific epitope binding protein S05 (bispecific antibody)
chain: FLESPDRPWNAPTFSPALLLVAEGDNATFTCSFSNASESFHVVWHRESPSGQTDTLAAFPEDRSQPGQDHRFRVTRLPNGRDFHMSVVRAQRNDSGTYVCGVISLAPKIQIKESLRAELRVTERRAEVPTAHPSPSPRPAGQFQTLVVGASGGGGSGGGGSDKTHTCPPCPAPEAAGGPSVFLFPPKPKDTLMISRTPEVTCVVVDVSHEDPEVKFNWYVDGVEVHNAKTKPREEQYNSTYRVVSVLTVLHQDWLNGKEYKCAVSNKALPAPIEKTISKAKGQPREPQVYTLPPSREEMTKNQVSLTCLVKGFYPSDIAVEWESNGQPENNYKTTPPVLDSDGSFFLYSKLTVDKSRWQQGNVFSCSVMHEALHNHYTQKSLSLSPGGGGGSGGGGSQVQLVQSGAEVKKPGASVKLSCKASGYTFSSYWMHWVRQAPGQGLEWIGEINPGNGHTNYNEKFKSRVTMTRDTSTSTAYMELSSLRSEDTAVYYCARSFKTARAFAYWGQGTLVTVSSGSTSGSGKPGSGEGSTKGDIVMTQSPAFLSVTPGEKVTITCRASQTISDYLHWYQQKPDQAPKLLIKYASQSISGIPSRFSGSGSGTDFTFTISSLEAEDAATYYCQDGHSWPPTFGQGTKLEIK
notes: as for B1
B3: bispecific epitope binding protein S01 (bispecific antibody)
chain: QVQLVQSGAEVKKPGASVKLSCKASGYTFSSYWMHWVRQAPGQGLEWIGEINPGNGHTNYNEKFKSRVTMTRDTSTSTAYMELSSLRSEDTAVYYCARSFKTARAFAYWGQGTLVTVSSGSTSGSGKPGSGEGSTKGDIVMTQSPAFLSVTPGEKVTITCRASQTISDYLHWYQQKPDQAPKLLIKYASQSISGIPSRFSGSGSGTDFTFTISSLEAEDAATYYCQDGHSWPPTFGQGTKLEIKASGGGGSGGGGSDKTHTCPPCPAPEAAGGPSVFLFPPKPKDTLMISRTPEVTCVVVDVSHEDPEVKFNWYVDGVEVHNAKTKPREEQYNSTYRVVSVLTVLHQDWLNGKEYKCAVSNKALPAPIEKTISKAKGQPREPQVYTLPPSREEMTKNQVSLTCLVKGFYPSDIAVEWESNGQPENNYKTTPPVLDSDGSFFLYSKLTVDKSRWQQGNVFSCSVMHEALHNHYTQKSLSLSPGGGGGSGGGGSFLESPDRPWNAPTFSPALLLVAEGDNATFTCSFSNASESFHVVWHRESPSGQTDTLAAFPEDRSQPGQDHRFRVTRLPNGRDFHMSVVRAQRNDSGTYVCGVISLAPKIQIKESLRAELRVTERRAEVPTAHPSPSPRPAGQFQTLVVG
notes: Anti-4-1BB 94kvt scFv x euPD-1 with hinge and engineered IgG1 Fc (L234A, L235A, K322A, D356E, L358M)
B4: bispecific epitope binding protein S07 (bispecific antibody)
chain: FLESPDRPWNAPTFSPALLLVAEGDNATFTCSFSNASESFHVVWHRESPSGQTDTLAAFPEDRSQPGQDHRFRVTRLPNGRDFHMSVVRAQRNDSGTYVCGVISLAPKIQIKESLRAELRVTERRAEVPTAHPSPSPRPAGQFQTLVVGASGGGGSGGGGSDKTHTCPPCPAPEAAGGPSVFLFPPKPKDTLMISRTPEVTCVVVDVSHEDPEVKFNWYVDGVEVHNAKTKPREEQYNSTYRVVSVLTVLHQDWLNGKEYKCAVSNKALPAPIEKTISKAKGQPREPQVYTLPPSREEMTKNQVSLTCLVKGFYPSDIAVEWESNGQPENNYKTTPPVLDSDGSFFLYSKLTVDKSRWQQGNVFSCSVMHEALHNHYTQKSLSLSPGGGGGSGGGGSDIVMTQSPAFLSVTPGEKVTITCRASQTISDYLHWYQQKPDQAPKLLIKYASQSISGIPSRFSGSGSGTDFTFTISSLEAEDAATYYCQDGHSWPPTFGQGTKLEIKGSTSGSGKPGSGEGSTKGQVQLVQSGAEVKKPGASVKLSCKASGYTFSSYWMHWVRQAPGQGLEWIGEINPGNGHTNYNEKFKSRVTMTRDTSTSTAYMELSSLRSEDTAVYYCARSFKTARAFAYWGQGTLVTVSS
notes: as for B1
B5: bispecific epitope binding protein S06 (bispecific antibody)
chain: FLESPDRPWNAPTFSPALLLVAEGDNATFTCSFSNASESFHVVWHRESPSGQTDTLAAFPEDRSQPGQDHRFRVTRLPNGRDFHMSVVRAQRNDSGTYVCGVISLAPKIQIKESLRAELRVTERRAEVPTAHPSPSPRPAGQFQTLVVGGGGGSGGGGSGGGGSFLESPDRPWNAPTFSPALLLVAEGDNATFTCSFSNASESFHVVWHRESPSGQTDTLAAFPEDRSQPGQDHRFRVTRLPNGRDFHMSVVRAQRNDSGTYVCGVISLAPKIQIKESLRAELRVTERRAEVPTAHPSPSPRPAGQFQTLVVGASGGGGSGGGGSDKTHTCPPCPAPEAAGGPSVFLFPPKPKDTLMISRTPEVTCVVVDVSHEDPEVKFNWYVDGVEVHNAKTKPREEQYNSTYRVVSVLTVLHQDWLNGKEYKCAVSNKALPAPIEKTISKAKGQPREPQVYTLPPSREEMTKNQVSLTCLVKGFYPSDIAVEWESNGQPENNYKTTPPVLDSDGSFFLYSKLTVDKSRWQQGNVFSCSVMHEALHNHYTQKSLSLSPGGGGGSGGGGSQVQLVQSGAEVKKPGASVKLSCKASGYTFSSYWMHWVRQAPGQGLEWIGEINPGNGHTNYNEKFKSRVTMTRDTSTSTAYMELSSLRSEDTAVYYCARSFKTARAFAYWGQGTLVTVSSGSTSGSGKPGSGEGSTKGDIVMTQSPAFLSVTPGEKVTITCRASQTISDYLHWYQQKPDQAPKLLIKYASQSISGIPSRFSGSGSGTDFTFTISSLEAEDAATYYCQDGHSWPPTFGQGTKLEIK
notes: as for B1

target: T1, 4-1BB antigen (abclon) (UniProt Q07011 24-186); assay: SPR, Biacore T200; variant captured on CM5, 4-1BB antigen injected
T1 construct: Bought antigen
T1 sequence (Q07011 24-186): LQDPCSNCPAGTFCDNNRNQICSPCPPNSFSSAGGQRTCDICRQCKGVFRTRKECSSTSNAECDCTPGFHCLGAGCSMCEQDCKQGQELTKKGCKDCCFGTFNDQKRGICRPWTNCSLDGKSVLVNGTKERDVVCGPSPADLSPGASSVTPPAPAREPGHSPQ
Method: (§1) Affinity to 4-1BB was determined using the bispecific epitope binding protein variants diluted to 5 μg/ml and then fixed to CM5 chip (Cytiva, BR-1005-30) with human capture (Cytiva, Cat. No. BR-1008-39). The 4-1BB antigen (abclon) was injected at concentrations of 100, 50, 25, 12.5, 6.25, and 3.125 nM, the association time was set to 150 seconds, and the dissociation time was set to 240 seconds. Biacore T200 (cytiva) was used as the analysis equipment.

Row | Kd [nM] | koff [s⁻¹] | kon [M⁻¹ s⁻¹] | Binder
1 | 2.87 | 0.000662 | 231000 | B1
2 | 3.66 | 0.000466 | 127000 | B2
3 | 3.34 | 0.000537 | 161000 | B3
4 | 105 | 0.000676 | 6430 | B4
5 | 3.72 | 0.000914 | 245000 | B5

target: T2, PD-L1 antigen (SinoBiologics, Cat. No. 10084-H08H) (human, UniProt Q9NZQ7 19-238); assay: SPR, Biacore T200; variant captured on CM5, PD-L1 antigen injected
T2 construct: Bought antigen; also called human PD-L1
T2 sequence (Q9NZQ7 19-238 limits assumed): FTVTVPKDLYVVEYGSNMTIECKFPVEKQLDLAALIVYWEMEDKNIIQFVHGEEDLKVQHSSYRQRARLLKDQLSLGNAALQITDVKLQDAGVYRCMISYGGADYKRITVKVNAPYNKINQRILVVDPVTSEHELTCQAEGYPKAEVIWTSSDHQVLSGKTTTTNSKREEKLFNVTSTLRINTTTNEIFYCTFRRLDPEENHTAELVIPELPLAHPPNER
Method: as §1
Affinity to PD-L1 was determined using the bispecific epitope binding protein variants diluted to 10 μg/ml and then fixed to CM5 chip with human capture.

Row | Kd [nM] | koff [s⁻¹] | kon [M⁻¹ s⁻¹] | Binder
6 | 2.34 | 0.0014 | 596000 | B1
7 | 1.16 | 0.00169 | 1.46e+06 | B2
8 | 5.73 | 0.00132 | 230000 | B3
9 | 1.58 | 0.00158 | 1e+06 | B4
10 | 2.22 | 0.00186 | 837000 | B5
